Measured values published in PMC3481545.
Substitutions are numbered along the chain they refer to. Numbers in names are those of the source.

B1: human recombinant BMPR-II ECD, wild type (domain or fragment)
chain: ASQNQERLCAFKDPYQQDLGIGESRISHENGTILCSKGSTCYGLWEKSKGDINLVKQGCWSHIGDPQECHYEECVVTTTPPSIQNGTYRFCCCSTDLCNVNFTENFPPPDTTPLSPPHSFNRDET
B2: BMPR-II ECD Y40Q (domain or fragment)
chain: B1 chain with Y15Q
B3: BMPR-II ECD Y40R (domain or fragment)
chain: B1 chain with Y15R
B4: BMPR-II ECD G47N (domain or fragment)
chain: B1 chain with G22N
B5: BMPR-II ECD S107P (domain or fragment)
chain: B1 chain with S82P
B6: BMPR-II ECD Y40G (domain or fragment)
chain: B1 chain with Y15G
B7: BMPR-II ECD Y40P (domain or fragment)
chain: B1 chain with Y15P

target: Activin (UniProt P08476); test: SPR

B1 and B2 are within 1.5-fold of each other in Kd: 26 µM for the first, 35 µM for the second.

First: B3
Second: B4
The Kd of the first is 1.5-fold higher: 46 µM for the first, 30 µM for the second.

Compared with B5, B6 is 2.3-fold higher in Kd: 23 µM for the first, 54 µM for the second. The first binds more tightly here.

Work on B7 yielded a Kd of 70 µM.
